{
  "source": "patent US20230331835A1",
  "target": "antigens on human iPSC-derived brain microvascular endothelial cells (BMECs) (human)",
  "experiment": "flow cytometry of BMECs with phage, anti-M13 detection",
  "data": [
    {"substance": "phage displaying anti-botulinum neurotoxin scFv", "values": [
      {"measurement": "geometric mean (fluorescence)", "value": 3.16}
    ]}
  ]
}
